Assay results: article PMC4513098, “Ordered Regions of Channel Nucleoporins Nup62, Nup54, and Nup58 Form Dynamic Complexes in Solution*” (The Journal of Biological Chemistry, 2015)

Molecular target: T1, Nup58(239–415), entire ordered region of Nup58 from Rattus norvegicus, His6 tag cleaved (Rattus norvegicus, UniProt P70581 239-415)
T1 construct: Nup58, Rattus norvegicus, residues 239-415 (entire ordered region); source: co-expressed with Nup54 and Nup62 from a polycistronic vector; not shown: His6, N-terminal, cleaved
T1 sequence: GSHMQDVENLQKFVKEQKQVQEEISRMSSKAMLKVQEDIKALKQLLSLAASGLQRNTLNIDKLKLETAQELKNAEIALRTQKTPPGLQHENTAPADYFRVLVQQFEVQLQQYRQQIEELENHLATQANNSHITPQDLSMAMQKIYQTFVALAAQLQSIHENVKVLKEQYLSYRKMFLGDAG
Test: SEC; competition: preassembled triple complex (1.5 mg/ml) incubated with Nup54 (453–494) wild type or H469F/Q473L (0.6 mg/ml), then size-exclusion chromatography and SDS-PAGE of column fractions
Conditions: both partners purified

binding result: binds
B1: wild-type Nup54 (453–494), Nup58-cognate segment of Nup54 (domain or fragment, Rattus norvegicus, UniProt P70582 453-494, looked up)
chain: EEKYYIDADLLREIKQHLKQQQEGLSHLISIIKDDLEDIKLV
notes: also called Nup54 segment; wt Nup54 (453–494)
